Laboratory results reported in patent US20250066446A1, “FUSION PROTEINS FOR THE TREATMENT OF CARDIOMETABOLIC DISEASES” (Shattuck Labs, Inc., priority 2022, published 2025).

Key:
recombinant human GDF-8 = biological target: T1, recombinant human GDF-8 (Homo sapiens, UniProt O14793); assay: MSD platform-based binding assay to plate-bound GDF-8; conditions: 3× serial dilutions of culture supernatants of HEK293T cells transfected with mmRNA constructs
T1 sequence (O14793 267-375): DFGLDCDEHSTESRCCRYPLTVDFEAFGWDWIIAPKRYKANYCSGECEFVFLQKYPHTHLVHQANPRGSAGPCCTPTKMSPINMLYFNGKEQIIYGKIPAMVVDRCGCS
Method: (§1) The binding by a recombinant human ACVR2B-Fc fusion protein to GDF-8 (also known as myostatin) was characterized using a Meso Scale Discovery (MSD) platform-based assay. Briefly, GDF-8 was coated on a plate and 8× serial dilutions of the purified recombinant human ACVR2B-Fc fusion protein were also added in a series of wells. The protein captured by the plate-bound GDF-8 was detected using an anti-human Fc antibody and a SULFO-TAG conjugated secondary antibody.
(§2) The binding to GDF-8 by the GLP-1-Fc-ACVR2B fusion protein produced using the mmRNA constructs was investigated using a Meso Scale Discovery (MSD) platform-based assay. Briefly, HEK293T cells were transfected with each mRNA construct using lipofectamine 2000, and culture supernatants were collected after 48 hours. GDF-8 was coated on a plate, and 3× serial dilutions of the culture supernatants were added to the plate for capture by the plate-bound GDF-8. The protein captured by the plate-bound GDF-8 was detected using an anti-human Fc antibody and a SULFO-TAG conjugated secondary antibody. The MSD signals generated by the culture supernatants of HEK293T cells transfected with different mmRNA constructs were plotted as a line graph.

[1] = biological target: T2, recombinant human Activin A (Homo sapiens, UniProt P08476); assay: MSD platform-based binding assay to plate-bound Activin A; conditions: 3× serial dilutions of culture supernatants of HEK293T cells transfected with mmRNA constructs
T2 sequence (P08476 311-426): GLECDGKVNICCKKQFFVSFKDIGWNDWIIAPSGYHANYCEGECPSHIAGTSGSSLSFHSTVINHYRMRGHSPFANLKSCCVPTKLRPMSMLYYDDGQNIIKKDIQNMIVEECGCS
Method: as §1, with “to activin A” for “to GDF-8”, “as Inhibin beta A)” for “as myostatin)”, “Briefly, Activin A” for “Briefly, GDF-8”, “plate-bound Activin A” for “plate-bound GDF-8”
as §2, with “Activin A” for “GDF-8”, “Activin A.” for “GDF-8.”

B1: GLP-1-Fc-ACVR2B chimeric protein: GLP-1 fused to ACVR2B extracellular domain via a hinge-CH2-CH3 Fc domain derived from IgG1; SEQ ID NO: 154 (protein)
chain: SGRGEAETRECIYYNANWELERTNQSGLERCEGEQDKRLHCYASWRNSSGTIELVKKGCWLDDFNCYDRQECVATEENPQVYFCCCEGNFCNERFTHLPEAGGPEVTYEPPPTAPTLLT
Recombinant human GDF-8
  binding to GDF-8: binds to the human GDF-8
[1]
  binding to Activin A: binds to the human Activin A
